Source: publication PMC4592603, “Cloning, Expression, Sequence Analysis and Homology Modeling of the Prolyl Endoprotease from Eurygaster integriceps Puton” (Insects, 2014)

Substrate: O=C(NCC(=O)N1CCC[C@H]1C(=O)Nc1ccc([N+](=O)[O-])cc1)OCc1ccccc1
Assay: purified protein
Format: biochemical, Eurygaster integriceps
Settings: 25 mM ethanolamine, pH 8.5, 0.1 M NaCl, 1 mM DTT, 37 °C, abstract prints 210 ± 53 µM

B1: spPEP (sunn pest prolyl endoprotease) (Eurygaster integriceps) (protein)
chain: MKKFQYPEARRDETIKETFFGIEVADPYRWLEDPDSEETKNFVDAQNSISEPYLKGCPARDKIKARLTQMLDYPKYSPPEKEGNHYFYFKNTGLQNHSVLYMQDSLDGPSKVFLDPNTFSSDGTVALTSTSFSEDGSIMGYTVSKSGSDWCTIHFRRVDTGEDYPEELKFVKFGHAAWTHDNLGVFYTRFPEVEGKSDGSETSQNRNQKIYYHKVGTPQSEDILVVELDDPEYIYTVCVSDCGRGVVILPSKFCHNNLVYFSDLSTLKDGIKGKLDVTCIVDKFEADYEFVANTGSKFVFRTNKNAHNYKLVVIDFENHSEENWVTLVPEHPTDVLEQAVSVAQDKLVLCYIRDVKNTLDIHSLVDGSLIRKIPVPIGTVSSISGSKKHSEVFYTFISFTSPGTIYRCDLSQSPIPDPEVFRQITIPGYDPSMFEEKQVFYLSKDGTRIPMFLVHKKVLEQNGKNPCLVYGYGGFNISLLPMFSTIRLVFVQYFNAVFASANIRGGGEYGEKWHDGGRLLNKQNSFDDFIAAGEYLIAEKYTNKSCLAIQGASNGGLLIGASVKPPYWLLEDPEYIYTVCVSDCGRWAVILPSKFCYNNLVYFSVLFQEEHFKNVLKYSPLHNIRVPEDQYPALLLLTASHDDRVVPLHSLKYIAQLQHVMRDNPKQENPLLIQVETKAGHGAGKPTNKRIEEQVDILCFLMNSMNLKFIE
notes: full-length ORF (no signal peptide identified), N-terminal FLAG and 10xHis tag, pNYCOMPS-LIC vector, E. coli BL21(DE3), soluble fraction, Ni-NTA, about 80 kDa, tags not reported cut
With B1 the Km was 211 ± 53 µM.
